Sequences and labels used below:
B1: t865771 (protein)
chain: MGNTTSIAGRDCLISALGGNSALAVFPNELLWTADVHEYNLNLPVTPAAITYPETAAQIAGVVKCASDYDYKVQARSGGHSFGNYGLGGADGAVVVDMKHFTQFSMDDETYEAVIGPGTTLNDVDIELYNNGKRAMAHGVCPTIKTGGHFTIGGLGPTARQWGLALDHVEEVEVVLANSSIVRASNTQNQDVFFAVKGAAANFGIVTEFKVRTEPAPGLAVQYSYTFNLGSTAEKAQFVKDWQSFISAKNLTRQFYNNMVIFDGDIILEGLFFGSKEQYDALGLEDHFAPKNPGNILVLTDWLGMVGHALEDTILKLVGNTPTWFYAKSLGFRQDTLIPSAGIDEFFEYIANHTAGTPAWFVTLSLEGGAINDVAEDATAYAHRDVLFWVQLFMVNPVGPISDTTYEFTNGLYDVLARAVPESVGHAYLGCPDPRMEDAQQKYWRTNLPRLQELKEELDPKNTFHHPQGVMPA
modifications: expressed in S. cerevisiae strain
B2: t865749 (protein)
chain: B1 chain with Y71I, N410D
modifications: expressed in S. cerevisiae strain
B3: t865750 (protein)
chain: B1 chain with S180T, N410D
modifications: expressed in S. cerevisiae strain
B4: t878464 (protein)
chain: B1 chain with R183T, N410D
modifications: expressed in S. cerevisiae strain
B5: t865690 (protein)
chain: B1 chain with N122A, I126T, N410D
B6: t865728 (protein)
chain: B1 chain with H287R, A341S, N410D
B7: t865739 (protein)
chain: B1 chain with N410D, R450K
B8: t865689 (protein)
chain: B1 chain with N122G, I126R, N410D

Substitutions are numbered along the chain they refer to.

One assay has as its system CBCA, THCA, and CBDA production. As to the kind of experiment: In vivo TS activity assay, Example 2 protein engineering of A. niger CBCAS, cultures fed olivetolic acid. The conditions noted are these: secondary screen. It counts as cell-based, S. cerevisiae. The protocol: (§1) An assay to detect TS activity was conducted as follows: each thawed glycerol stock of candidate CBCAS transformants was stamped into a well of YEP+4% dextrose media. Samples were incubated at 30° C. in a shaking incubator for 2 days. A portion of each of the resulting cultures was stamped into a well of YEP+4% galactose+1 mM olivetolic acid (FIG. 1 Structure 6a). Samples were incubated at 20° C. and shaken in a shaking incubator for 4 days. Every 24 hours during those 4 days, 2% galactose and 1 mM olivetolic acid were spiked into the cultures. Sodium citrate buffer adjusted to pH 5.5 was added to each well at a final concentration of 100 mM. Samples were incubated at 20° C. and shaken in a shaking incubator for 2 days. A portion of each of the resulting production cultures was stamped into a well of phosphate buffered saline (PBS). Optical measurements were taken on a plate reader, with absorbance measured at 600 nm and fluorescence at 528 nm with 485 nm excitation. Samples were incubated at 30° C. in a shaking incubator for 2 days. 100% methanol was stamped into the production cultures in half-height deepwell plates. Plates were heat sealed and frozen. Samples were then thawed for 30 min and spun down at 4° C. A portion of the supernatant was stamped into half-area 96 well plates. CBCA, THCA, and CBDA production in the samples was quantified via liquid chromatography-mass spectrometry (LC-MS).
(§2) To determine whether engineering of the A. niger CBCAS identified in Example 1 (corresponding to SEQ ID NO: 29 (with signal peptides); SEQ ID NO: 27 (without signal peptides and including an N-terminal methionine (UniProt accession No. A0A254UC34)); or SEQ ID NO: 25 (without signal peptides and without the N-terminal methionine)), could alter CBCAS substrate specificity, product specificity and/or amounts of products produced, point mutations were generated in A. niger CBCAS and the mutant versions of the protein were expressed in S. cerevisiae. A library containing 1047 A. niger CBCAS mutants was generated and screened. As in Example 1, each CBCAS mutant in the library, as well as the enzymes expressed by positive control strains, included an N-terminal MFalpha2 signal peptide (SEQ ID NO: 16) (with a methionine residue added at the N-terminus of the MFalpha2 signal peptide) and a C-terminal HDEL signal peptide (SEQ ID NO: 17).
Production of compounds of Formulae (9), (10), and/or (11), including compounds of Formulae (9a), (10a), and/or (11a) by strains expressing the mutated versions of A. niger CBCAS was quantified and compared to the production of the same compounds by a strain expressing wild-type A. niger CBCAS, a strain expressing a C. sativa THCAS, and a strain expressing a C. sativa CBDAS. The strains were screened using the same assay described in Example 1. Production of CBCA, THCA, and/or CBDA in the samples was quantified via LC-MS.
(§3) Of the original 1047 library members, 55 strains were elevated to a secondary screen to verify CBCA production. The experimental protocol for the secondary screen was identical to the primary screen, except that additional biological replicates were included per strain, and replicate production cultures for each strain were separately fed 1 mM boluses of olivetolic acid or 1 mM boluses of divaric acid. All strains were screened in quadruplicate.
For the molecule B1, the “average CBCA titer compared with the A. niger positive control” value is “higher”.

Consider B2, for which the “average CBCA titer compared with the A. niger positive control” value is “higher”.

As for B3, the “average CBCA titer compared with the A. niger positive control” value is recorded as “higher”.

Consider B4, for which the “average CBCA titer compared with the A. niger positive control” value is “higher”.

With B5, the “average CBCA titer compared with the A. niger positive control” value was “higher”.

On to B6, for which the “average CBCA titer compared with the A. niger positive control” value is “higher”.

Regarding B7, the “average CBCA titer compared with the A. niger positive control” value is reported as “higher”.

Consider B8, for which the “average CBCA titer compared with the A. niger positive control” value is “higher”.

The same assay, now with this note: secondary screen, olivetolic acid (Table 8).
As for B1, the “Mean CBCA” value turned out to be 40971.16 µg/L, the “Mean CBDA” value was determined as 8309.68 µg/L and the “Mean THCA” value stood at 2638.90 µg/L.

Turning to B2, the “Mean CBCA” value was found to be 37290.06 µg/L, the “Mean CBDA” value is 6071.00 µg/L and the “Mean THCA” value came to 2140.74 µg/L.

Regarding B3, the “Mean CBCA” value was determined as 39940.41 µg/L, the “Mean CBDA” value came to 10807.90 µg/L and the “Mean THCA” value amounted to 2475.89 µg/L.

As to B4, the “Mean CBCA” value turned out to be 38911.71 µg/L, the “Mean CBDA” value is 9203.22 µg/L and the “Mean THCA” value worked out at 2062.10 µg/L.

Take B5: the “Mean CBCA” value was 38065.26 µg/L, the “Mean CBDA” value is 8288.48 µg/L and the “Mean THCA” value was found to be 2186.36 µg/L.

As for B6, the “Mean CBCA” value turned out to be 36875.12 µg/L, the “Mean CBDA” value was found to be 8996.37 µg/L and the “Mean THCA” value was found to be 2692.19 µg/L.

Consider B7, for which the “Mean CBCA” value came to 40214.21 µg/L, the “Mean CBDA” value was 10767.85 µg/L and the “Mean THCA” value was found to be 2538.89 µg/L.

B8: the “Mean CBCA” value was found to be 38241.90 µg/L, the “Mean CBDA” value came to 10157.65 µg/L and the “Mean THCA” value is 2452.92 µg/L.

Still in this assay, the particulars now being: share of terminal cannabinoid product profile.
Regarding B1, the “% CBCA” value came to 78.91%, the “% CBDA” value was 16.00% and the “% THCA” value was 5.08%.

Regarding B2, the “% CBCA” value was determined as 81.95%, the “% CBDA” value is listed as 13.34% and the “% THCA” value is recorded as 4.70%.

As for B3, the “% CBCA” value was 75.04%, the “% CBDA” value was found to be 20.31% and the “% THCA” value amounted to 4.65%.

B4: the “% CBCA” value is 77.55%, the “% CBDA” value was determined as 18.34% and the “% THCA” value is 4.11%.

Take B5: the “% CBCA” value came to 78.42%, the “% CBDA” value is given as 17.08% and the “% THCA” value is 4.50%.

As for B6, the “% CBCA” value is on record as 75.93%, the “% CBDA” value is 18.52% and the “% THCA” value was 5.54%.

On to B7, for which the “% CBCA” value came out at 75.14%, the “% CBDA” value stood at 20.12% and the “% THCA” value amounted to 4.74%.

B8: the “% CBCA” value is given as 75.20%, the “% CBDA” value stood at 19.97% and the “% THCA” value is recorded as 4.82%.

Another assay has as its system CBCVA, THCVA, and CBDVA production. The assay can be described thus: In vivo TS activity assay, Example 2 protein engineering of A. niger CBCAS, cultures fed divaric acid. The assay is classed as cell-based, S. cerevisiae. The conditions noted are these: S. cerevisiae strains expressing A. niger CBCAS mutants, secondary screen, fed divaric acid. As to the method:
as §1, §2, §3
Regarding B1, the “Mean CBCVA” value was 1592.02 µg/L, the “Mean CBDVA” value is 0.00 µg/L and the “Mean THCVA” value is 968.82 µg/L.

In the case of B2, the “Mean CBCVA” value was 2230.06 µg/L, the “Mean CBDVA” value amounted to 0.00 µg/L and the “Mean THCVA” value is 997.07 µg/L.

With B3, the “Mean CBCVA” value came out at 5745.78 µg/L, the “Mean CBDVA” value is 0.00 µg/L and the “Mean THCVA” value was 2770.13 µg/L.

Regarding B4, the “Mean CBCVA” value stood at 5383.16 µg/L, the “Mean CBDVA” value was 0.00 µg/L and the “Mean THCVA” value worked out at 2710.86 µg/L.

Turning to B5, the “Mean CBCVA” value is 2557.72 µg/L, the “Mean CBDVA” value worked out at 0.00 µg/L and the “Mean THCVA” value came to 1441.19 µg/L.

For B6, the “Mean CBCVA” value was determined as 3907.72 µg/L, the “Mean CBDVA” value was 0.00 µg/L and the “Mean THCVA” value was 1759.32 µg/L.

For B7, the “Mean CBCVA” value was found to be 4265.42 µg/L, the “Mean CBDVA” value was 0.00 µg/L and the “Mean THCVA” value amounted to 2039.44 µg/L.

Take B8: the “Mean CBCVA” value came out at 6333.32 µg/L, the “Mean CBDVA” value worked out at 0.00 µg/L and the “Mean THCVA” value was 2791.18 µg/L.

The assay is the same for the next values; noted with them: secondary screen.
For the molecule B3, the “average CBCVA titer compared with the A. niger positive control” value is “higher”.

As to B4, the “average CBCVA titer compared with the A. niger positive control” value is on record as “higher”.

Consider B6, for which the “average CBCVA titer compared with the A. niger positive control” value is “higher”.

Take B7: the “average CBCVA titer compared with the A. niger positive control” value was “higher”.

As to B8, the “average CBCVA titer compared with the A. niger positive control” value is given as “higher”.

Still in this assay, the particulars now being: share of terminal cannabinoid product profile, fed divaric acid.
B1: the “% CBCVA” value is 62.17%, the “% CBDVA” value is 0.00% and the “% THCVA” value was 37.83%.

Turning to B2, the “% CBCVA” value came to 69.10%, the “% CBDVA” value stood at 0.00% and the “% THCVA” value is recorded as 30.90%.

Take B3: the “% CBCVA” value was found to be 67.47%, the “% CBDVA” value came to 0.00% and the “% THCVA” value is 32.53%.

For B4, the “% CBCVA” value is given as 66.51%, the “% CBDVA” value came out at 0.00% and the “% THCVA” value is recorded as 33.49%.

Take B5: the “% CBCVA” value is listed as 63.96%, the “% CBDVA” value turned out to be 0.00% and the “% THCVA” value turned out to be 36.04%.

As to B6, the “% CBCVA” value is given as 68.96%, the “% CBDVA” value turned out to be 0.00% and the “% THCVA” value was 31.04%.

B7: the “% CBCVA” value turned out to be 67.65%, the “% CBDVA” value came to 0.00% and the “% THCVA” value is 32.35%.

As for B8, the “% CBCVA” value is reported as 69.41%, the “% CBDVA” value is 0.00% and the “% THCVA” value is 30.59%.

For the origin of these results see patent US20230137139A1, “BIOSYNTHESIS OF CANNABINOIDS AND C[…]” (priority 2020, published 2023).
